Measured values as given in patent publication US11858993B2, “Multi-specific antibodies with affinity for human A33 antigen and DOTA metal complex and uses thereof” (Memorial Sloan Kettering Cancer Center, priority 2015, dated 2024).
Like-named read-outs stand apart in the source and are kept apart here.

Legend:
SW1222 tumor = assay: ^177Lu-DOTA-Bn dose titration, tumor uptake and saturation during PRIT; assay type: in vivo, mice
Method: FIGS. 4A-4D show exemplary tumor uptake of ^177Lu-DOTA-Bn at 24 hours post injection as a function of radioactivity in the treatment of mice bearing a human colon cancer xenograft (SW1222); (FIG. 4A) uptake of amounts of ^177Lu-DOTA-Bn in various tissues. (FIG. 4B) Uptake of amounts of ^177Lu-DOTA-Bn in SW1222 tumors; (FIG. 4C) activity of ^177Lu-DOTA-Bn in SW1222 tumors and kidneys 24 hours post injection per amount of injected ^177Lu-DOTA-Bn; (FIG. 4D) pmoles of ^177Lu-DOTA-Bn binding in the tumor 24 hours post injection per amount of injected ^177Lu-DOTA-Bn. Saturation was achieved after approximately 40 MBq of injected activity.
As described herein, the present inventors provide an improved multi-step PRIT method in immunocompromised mice bearing s.c. A33-positive human colorectal tumors (SW1222) using a bispecific antibody termed huA33-C825. Such methodology includes i.v. injection of various doses of huA33-C825 and a dextran-based CA, followed with injection of ^177Lu-DOTA-Bn theranostic (i.e., diagnostic and therapeutic) hapten for simultaneous scintigraphic imaging and radioimmunotherapy. The present invention specifically describes biodistribution studies that provide optimum huA33-C825 and CA doses, followed with a series of additional biodistribution studies to determine the tumor uptake as a function of ^177Lu-DOTA-Bn doses (˜2.0-111.0 MBq) to serve as a practical and dosimetric guide for PRIT studies. Also, as described herein, tumors and kidneys were excised at 24 hours post injection of ^177Lu-DOTA-Bn at three different dose levels (11.1, 55.0, and 111.0 MBq) to examine ex vivo the ^177Lu-activity microdistribution via autoradiography, as well as correlate the ^177Lu-activity with the xenograft and tissue morphology via hematoxylin and eosin staining. Further, the estimated absolute SW1222 tumor uptake of huA33-C825 24 h p.i. of 0.25 mg/mouse based on radioactive tracer studies with ^131I-huA33-C825 was ˜90 pmol/g of tumor.

[1] = test system: A33-positive SW1222 tumor; assay: Biodistribution of ^177Lu-activity 2-120 h p.i. following PRIT; details: 2.0 MBq ^177Lu-DOTA-Bn
Method: Briefly, ^177Lu-activity in tumor and various normal tissues determined using a biodistribution assay following PRIT with optimum A33-C825 (0.25 mg/mouse) and dextran-clearing agent doses (25% (w/w), 62.5 μg) and 2.0 MBq (˜10 pmol) of ^177Lu-DOTA-Bn. Groups of SW1222 tumor-bearing mice (n=4 to 5) were given 250 μg of huA33-C825, followed 24 h later with 25% (w/w) (62.5 μg) dextran-clearing agent, and after an additional 4 h, 2.0 MBq (˜10 pmol) of 177Lu-DOTA-Bn. […] was sacrificed at 2, 24, and 120 h p.i. of ^177Lu-DOTA-Bn for biodistribution analysis.
All animal experiments were approved by the Institutional Animal Care and Use Committee of Memorial Sloan Kettering Cancer Center and institutional guidelines for the proper and humane use of animals in research were followed. Athymic nu/nu female mice (6-8 weeks old; Harlan Sprague Dawley) were allowed to acclimate in the vivarium for at least one week. […] All reagents were given intravenously (i.v.) via the lateral tail vein. […] In addition, huA33-C825 was trace radiolabeled with I-131 to estimate tumor uptake during PRIT. […] (Lindmo, T. et al., 1990, J. Immunol. Meth. 126(2):183-189). For PRIT with non-specific IgG-C825, an equivalent mg dose of a GD2-targeted bispecific antibody (hu3F8-C825) was used in place of huA33-C825. For ex vivo biodistribution analysis, mice were euthanized by CO2(g) asphyxiation, and tumor and selected organs were harvested, rinsed with water and allowed to air-dry, weighed and radioassayed by gamma scintillation counting (Perkin Elmer Wallac Wizard 3″). Count rates were background and decay corrected, converted to activities using a system calibration factor, normalized to the administered activity, and expressed as percent injected dose per gram (% ID/g). Differences in ^177Lu-activity concentration in tumor and various tissues were analyzed by Student's unpaired t test when appropriate. […]

[2] = Stability by SE-HPLC and Biacore after freeze and thaw cycles; assay type: physicochemical; details: after multiple freeze and thaw cycles
[3] = test system: A33-positive SW1222 xenografts; details: for Complete Response / Cures at 40 d post-treatment: Single-cycle; for tumor volume: day 23 post tumor-inoculation, average±SEM
Description: All animal experiments were approved by the Institutional Animal Care and Use Committee of Memorial Sloan Kettering Cancer Center and institutional guidelines for the proper and humane use of animals in research were followed. Athymic nu/nu female mice (6-8 weeks old; Harlan Sprague Dawley) were allowed to acclimate in the vivarium for at least one week. […] All reagents were given intravenously (i.v.) via the lateral tail vein. […] In addition, huA33-C825 was trace radiolabeled with I-131 to estimate tumor uptake during PRIT. […] (Lindmo, T. et al., 1990, J. Immunol. Meth. 126(2):183-189). For PRIT with non-specific IgG-C825, an equivalent mg dose of a GD2-targeted bispecific antibody (hu3F8-C825) was used in place of huA33-C825. For ex vivo biodistribution analysis, mice were euthanized by CO2(g) asphyxiation, and tumor and selected organs were harvested, rinsed with water and allowed to air-dry, weighed and radioassayed by gamma scintillation counting (Perkin Elmer Wallac Wizard 3″). Count rates were background and decay corrected, converted to activities using a system calibration factor, normalized to the administered activity, and expressed as percent injected dose per gram (% ID/g). Differences in ^177Lu-activity concentration in tumor and various tissues were analyzed by Student's unpaired t test when appropriate.

[4] = target: T1, Recombinant human A33 protein (Homo sapiens, UniProt Q99795); assay: Biacore T100 surface plasmon resonance, binding to human A33 antigen; details: Biacore T100, bivalent analyte model
T1 construct: purchased Novoprotein
T1 sequence (Q99795 22-319): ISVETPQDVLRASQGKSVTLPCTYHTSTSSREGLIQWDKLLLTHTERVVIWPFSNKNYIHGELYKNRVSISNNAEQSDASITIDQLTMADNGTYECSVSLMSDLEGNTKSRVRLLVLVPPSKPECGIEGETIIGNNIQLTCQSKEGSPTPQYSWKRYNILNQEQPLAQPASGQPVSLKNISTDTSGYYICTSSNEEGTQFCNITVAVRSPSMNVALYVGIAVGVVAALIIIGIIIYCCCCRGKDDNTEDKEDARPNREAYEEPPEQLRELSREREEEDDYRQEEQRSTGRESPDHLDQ
Method: Binding affinity was measured by Biacore T100.
Biacore T100 Biosensor, CM5 sensor chip, and related reagents were purchased from GE Healthcare. Recombinant human A33 protein was purchased from Novoprotein. A BSA-(Y)-DOTA-Bn conjugate was prepared as described (Cheal et al., supra). A33 and DOTA antigens were immobilized using the Amino Coupling kit (GE Healthcare). Purified bispecific antibodies and control antibodies were analyzed, and data were fit to a bivalent analyte model using the Biacore T100 evaluation software as described (Cheal et al., supra).

[5] = single-cycle huA33-C825 PRIT+either 11.1 MBq or 33.3 MBq ^177Lu-DOTA-Bn

## huA33-C825: bispecific antibody: humanized A33 IgG1 with murine C825 anti-DOTA-Bn scFv linked to the light chain C-terminus
SW1222 tumor; 11 pmol ^177Lu-DOTA-Bn/180 pmol
  estimated maximum occupancy (fraction): 0.061
SW1222 tumor; PRIT+55.5 ^177Lu-DOTA-Bn per cycle
  peak tumor uptake: 3 % ID/g
SW1222 tumor; SW1222 tumors, 24 hours post injection
  injected activity of ^177Lu-DOTA-Bn after which saturation of tumor binding was achieved: approximately 40 MBq
SW1222 tumor; mouse, in vivo
  ^177Lu-DOTA-Bn bound in tumor used for maximum occupancy: 11 pmol
SW1222 tumor; two ^177Lu-DOTA-Bn per huA33-C825 molecule
  maximum ^177Lu-DOTA-Bn binding capacity: 180 pmol/g tumor
[1]; 2 hr p.i. (n = 5)
  Tumor-to-tissue ratio, Kidneys: 8.1 ± 1.7
[1]; 24 hr p.i. (n = 4)
  Tumor-to-tissue ratio, Kidneys: 18.3 ± 13.4
[1]; 120 hr p.i. (n = 5)
  Tumor-to-tissue ratio, Kidneys: 14.8 ± 4.9
[2]
  stability by SE-HPLC and Biacore: remained stable
[3]; + 11.1 MBq
  Complete Response: 0/8
  Cures at 40 d post-treatment: 0/8
[3]; + 33.3 MBq
  Complete Response: 0/8
  Cures at 40 d post-treatment: 0/8
[3]; 11.1 MBq ^177Lu-DOTA-Bn
  tumor volume: 694±138 mm^3
[3]; 33.3 MBq ^177Lu-DOTA-Bn
  tumor volume: 495±76 mm^3
[3]; mouse, in vivo
  effective dose range (tumor): 1800-2200 cGy
[3]; [5]
  complete response (CR): no CR
  slight growth delay of the tumors, up to (days following treatment): ~15 days
[4]
  koff: 0.00581 s⁻¹
  kon: 91500 M⁻¹ s⁻¹
